Where no end group is shown, it is not given here.
B4: αB-crystallin core domain (αBDom) 68-153 (protein)
chain: MRLEKDRFSVNLDVKHFSPEELKVKVLGDVIEVHGKHEERQDEHGFISREFHRKYRIPADVDPLTITSSLSSDGVLTVNGPRKQVS

Tests used:
Test in all cases: ion-mobility native mass spectrometry titration
[1] = molecular target: T1, αBExt C-terminal peptide, second binding (Homo sapiens, not fully specified; dimer with one αBExt peptide already bound)
T1 chain: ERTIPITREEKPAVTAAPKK

[2] = molecular target: T2, αBPal C-terminal peptide, second binding (Homo sapiens, not fully specified)
T2 chain: ERTIPITRE

[3] = molecular target: B4
[4] = molecular target: T3, αBExt C-terminal peptide, first binding (Homo sapiens)
T3 chain: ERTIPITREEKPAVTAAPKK

[5] = molecular target: the molecule itself
[6] = molecular target: T4, αBPal C-terminal peptide, first binding (Homo sapiens)
T4 chain: ERTIPITRE

B1: αB-crystallin core domain (αBDom) dimer 68-153 (protein)
chain: MRLEKDRFSVNLDVKHFSPEELKVKVLGDVIEVHGKHEERQDEHGFISREFHRKYRIPADVDPLTITSSLSSDGVLTVNGPRKQVS
**Q.** B1 was tested. Which Kd [1] did it give?
**A.** 300 µM

**Q.** What about the Kd [2] of the same binder?
**A.** 150 µM

B2: αB-crystallin core domain (αBDom) 68-153 (protein)
chain: MRLEKDRFSVNLDVKHFSPEELKVKVLGDVIEVHGKHEERQDEHGFISREFHRKYRIPADVDPLTITSSLSSDGVLTVNGPRKQVS
modifications: both subunits bound to αBExt peptide
**Q.** With B2 as the binder, how does the Kd [3] read?
**A.** 6 µM

B3: αB-crystallin core domain (αBDom) 68-153 (protein)
chain: MRLEKDRFSVNLDVKHFSPEELKVKVLGDVIEVHGKHEERQDEHGFISREFHRKYRIPADVDPLTITSSLSSDGVLTVNGPRKQVS
modifications: both subunits bound to αBPal peptide
**Q.** B3 was tested. Which Kd [3] did it give?
**A.** 4 µM

**Q.** For B4, which Kd [4] is on record?
**A.** ~70 µM

**Q.** And the Kd [5]?
**A.** ~2 µM

**Q.** What about the Kd [6] of the same binder?
**A.** ~70 µM
